Measurements from the supplement of paper PMC12636428.

System: Saccharomyces cerevisiae
Assay: transcriptional activation domain activity (GFP:mCherry ratio, weighted mean of sorted bins, harmonized to initial dataset scale) (arbitrary fluorescence ratio units); higher = stronger transcriptional activation
Settings: beta-estradiol 1 µM; induction time 4 h
In short: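 The activation activity of each tile is the read-weighted mean of bin median fluorescence, averaged across its barcodes and mapped linearly onto the scale of the initial dataset. Tiles were fused to an estradiol-inducible synthetic transcription factor, barcoded, and integrated at URA3 in yeast diploids carrying a GFP reporter. Induction used 1 uM beta-estradiol in SC for 4 hours at 30 °C, after which cells were sorted into 8 GFP:mCherry bins, and any tile with fewer than 50 reads was dropped.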

Sequence | transcriptional activation domain activity
DFWFFLFVYYGFYNLVGLLWITKVFNMYGLNWWPVRLGFPATFTLFNCLSLAC | 65500
VRVVQLSLSLFIARFVTALVLPFIAIVTKWLVIGRYRPGIFPLWGTYYLRWWF | 45000
LSAIVWQIVVDYFYDFVYLTSGLLWPPPTDFIMHTEHFYAGQLIVLLFFYTSL | 69200
LFHSYFSFLLLFFFFFFFYFLPFFFFLPSLLPHFLLFSFYFPFISPFLSTSFS | 58800
EHVHVNKIPVRVSHGSGFELMGKSSFIFKGFRSLGILMLIFWSKANHILIVTV | 70700
MGSNANKRREDGPKKEQLQKRVLHIRSVARSTKGGKIRSSSAIVVVGNGNGVG | 42400
LYSVCSILLLVVRLFKQLPRQYCSWRVVYTQKLWISITICFTLMRFSFSRDHT | 51100
IVIPGGRPGSVGGGGWFGGSSVFLEGLEGLEDGVMFGNAWEFDLLDLEWLFPF | 121000
MIPLLSFYYYFYISTCKTELLFSPFIFYFLLFLYIYIKIYTYFLHTPFLLVFE | 47700
ARVQVNFWFFLFVYYGFYNLTALMWITKVFNLYSLNWWPSTMGFPLTITLIAI | 55300
LPLYILSLLCCFFIIAMFWKVTIPFFLIFPSFFMLSCFHLYFSFSPSRWCILN | 38600
ASSYAVQHTRKKGRGGGGGEAGNKPANKAARSWDKNAELHGTQGKMHVTIAVT | 85900
VGKSCGRCRFPICYNPRGTCICCALRSNIVIPWMHFAYRNPHDRKPFVLHFTF | 41700
MCRCFFWSFLVFFVFFSLLCLFVSFCVFLCFAFLCFVFFVFCFFCFFCLFCVF | 56600
MNITTVRALGLYILFHQYLIMIEDFICGFLIWYLRYFFYFTYLLCTVISYLSC | 78500
MSTEVKAAHAGKARQKAWKPKVKTGCVTCRNRRVKCDEAKPDCRRCVAAGRKC | 10800
CPFLKCTVYLRTIKHYLFVLVFLPLDALFSIALSCYALSYARVLVVPLALSIF | 53700
MARQPSAPNAASDRGAATTTPRKPTTRSRTGCSACRKRRTKCDEARPACGHCV | 44600
FFFFLLFCFSFLYRLLSLYLFLFPFDFFFFSPWFCSNSRFYLRFVSFFPFFFF | 50200
RRRGGRGAGEGGEGEQEKGEGEQEKGEGEQERGGKGSRRRGGRGAGEGGEGEQ | 13900
QKKLLILCGFGWLADNVSIYHLLSISCWFYYKGTQLYSLFLIRCGYRLWLLFF | 70700

Sequence | transcriptional activation domain activity
EMIMGFFFKNIVWTLTLFWYQIFCQFNGSMMFDYALVTLFNLVFTSLPIMCMG | 52100
TYAIWNCNKWILCILVVVASGVYISSAVILHDIFQSYEYPVLSLPTKMYCLPF | 18700
MLNLSYPFVLFILVPLILIPTCFCPFFVGPSYMSFCLSWLLPLFSFLPLLMLM | 50300
MSSLPLFPVLSSSLCFPLPPSLPLSSPPSVSPFPPFSLFPPLPLFSPFPPSIS | 38900
IFVSLLDYLATWISDDQIKCWPLNFVSRMFFYMLYFVFYRTILLFLTIEEIAV | 55200
QLRLFQFDRLVEELLPLVHTHFIRKGIKSSMFASQWFMTLFSYRFPLSLVYRV | 66200
LNKVCCIFCFLFSFYLLSFYSPFYFCFAFILLLSFFFFFFFFLLLLYFLLLSI | 48600
SKHSKKRSSKRARSSSSSSSSSSSEEDDRRRRKRRKEKKRSHKKSHTRRRSRS | 32700
KHMHLESKPPQLPPKCSSLRKPTNTLQGTNHAYHEHILNTDMDLKILEDLCNI | 64100
ENEDDAFGALNYNSLDATTMSAFDNNVDPFNILKSSPAQDQQFIKPSMMLSDN | 77200
INSTIHNLCELAILPDLCGICCFSMRFFVYLDLIGTLILPSTVVYLVWLIIQV | 82700
VPLCIAVLLLLAPHPSILHVLLNYHYLTLHSTRYFLAHLFVIYTISFLAFSSL | 47400
IWGSANTLPKYLYFISRYFGLLGQLVVSTNLVPMFCFDYLVWSFGFLFTLILS | 87200
MGNGSVLLFLLFLCYGKGLGFFIFTFFFLFYLCIIYFFFPLFYYYLPLLSAGW | 67100
TDSNATQKQLPVLTPSDLLSPFSVPSVSQVLFTNELRSMMLADNNIDSGAFPT | 79900
WSSYTGPILSPGFSDLDWAPDPSNTTSGNLFIDLWPTWLSWMPDSTVLFTPWG | 49900
GGPARRMKPGAPDARREEGGKKKRGATNDTGAAKEKAPAKGRKGKKKPAEESE | 44500
LRGGYTCQLNGTPKNPDLQVWLQLNLIAYFSFLDTRACDGKTASITGSAEMPF | 51900
LLLCGEICVACIVLYIHIVFFFGFFFFFLLGMIGLCLTFSNQLILFVYFLYFL | 43200
VFCMLYTLLHILAACLHYHCFSHLAPPYQTLLWYSYFNVIIVGLLLFWYCELV | 35100
